Assay results from patent US20140093973A1 (BOARD OF REGENTS OF THE UNIVERSITY OF OKLAHOMA, published 2014).
Ends that are not written are not given here.

Key:
[1] = biological target: T1, soluble HLA-B*4402 (human); assay: FP screen of 53 sHLA
T1 construct: Member of the panel of 53 single-specificity sHLA

[2] = biological target: T2, soluble HLA-B*4002 (human); assay: FP screen of 53 sHLA with FITC-peptide
T2 construct: Member of the panel of 53 single-specificity sHLA

[3] = biological target: T3, soluble HLA-B*1801 (human); assay: FP screen of 53 sHLA with FITC-peptide
T3 construct: Member of the panel of 53 single-specificity sHLA

[4] = biological target: T4, soluble HLA-B*4001 (human); assay: FP screen of 53 sHLA with FITC-peptide
T4 construct: Member of the panel of 53 single-specificity sHLA

[5] = biological target: T4, soluble HLA-B*4001; assay: FP screen of 53 sHLA
[6] = biological target: T5, soluble HLA-B*1501 (human); assay: FP screen of 53 sHLA with FITC-peptide
T5 construct: Member of the panel of 53 single-specificity sHLA

[7] = biological target: T1, soluble HLA-B*4402; assay: FP screen
[8] = biological target: T6, soluble HLA-B*1512 (human); assay: FP screen
T6 construct: Member of the panel of 53 single-specificity sHLA

[9] = biological target: T7, soluble HLA-B*1302 (human); assay: FP screen
T7 construct: Member of the panel of 53 single-specificity sHLA

[10] = biological target: soluble HLA-A*0201 (sHLA-A*0201) (human); assay: FP screen
[11] = biological target: T8, soluble HLA-A*4301 (sHLA-A*4301) (human); assay: FP screen
T8 construct: Recombinant soluble class I with endogenous peptides, made as m1

[12] = biological target: T9, soluble HLA-B*2705 (sHLA-B*2705) (human); assay: FP screen
T9 construct: Recombinant soluble class I with endogenous peptides, made as m1; negative control

[13] = biological target: T10, soluble HLA-A*1102 (sHLA-A*1102) (human, UniProt P04439 25-308; P61769 21-119); assay: FP screen
T10 construct: Recombinant soluble class I with endogenous peptides, made as m1

[14] = biological target: T11, soluble HLA-A*3601 (human); assay: FP screen
T11 construct: Member of the panel of 53 single-specificity sHLA

[15] = biological target: T12, soluble HLA-B*4501 (human); assay: FP screen
T12 construct: Member of the panel of 53 single-specificity sHLA

[16] = biological target: T13, soluble HLA-A*0301 (human); assay: FP screen
T13 construct: Member of the panel of 53 single-specificity sHLA

[17] = biological target: T14, soluble HLA-A*2301 (human); assay: FP screen
T14 construct: Member of the panel of 53 single-specificity sHLA

[18] = biological target: T15, soluble HLA-A*2902 (human); assay: FP screen
T15 construct: Member of the panel of 53 single-specificity sHLA

[19] = biological target: T16, soluble HLA-A*6901 (sHLA-A*6901) (human); assay: FP screen
T16 construct: Recombinant soluble class I with endogenous peptides, made as m1

[20] = biological target: T17, soluble HLA-A*6601 (human); assay: FP screen
T17 construct: Member of the panel of 53 single-specificity sHLA

[21] = biological target: T18, soluble HLA-A*3402 (human); assay: FP screen
T18 construct: Member of the panel of 53 single-specificity sHLA

[22] = biological target: T19, soluble HLA-A*3002 (human); assay: FP screen
T19 construct: Member of the panel of 53 single-specificity sHLA

[23] = biological target: T20, soluble HLA-A*6801 (sHLA-A*6801) (human); assay: FP screen
T20 construct: Recombinant soluble class I with endogenous peptides, made as m1

[24] = biological target: T21, soluble HLA-A*2601 (human); assay: FP screen
T21 construct: Member of the panel of 53 single-specificity sHLA

[25] = biological target: T22, soluble HLA-A*2402 (human); assay: FP screen
T22 construct: Member of the panel of 53 single-specificity sHLA

B1: AELLAAKF, FITC-labeled B44-like peptide (peptide)
peptide: AELLAAKF
modifications: also: FITC-labeled, position not given here
[1]
  binding result: no binding (tested: 2 nM peptide, 100 ug/ml activated sHLA)
[2]
  binding result: binds
[3]
  binding result: binds
[4]
  binding result: binds

B2: EEKLIVKQY, FITC-labeled B44-like peptide (peptide)
peptide: EEKLIVKQY
modifications: also: FITC-labeled, position not given here
[5]
  binding result: binds
[6]
  binding result: binds
[3]
  binding result: binds
[7]
  binding result: no binding (tested: 100 ug/ml sHLA)
[8]
  binding result: no binding (tested: 100 ug/ml sHLA)
[9]
  binding result: no binding (tested: 100 ug/ml sHLA)
[10]
  binding result: no binding (tested: 100 ug/ml sHLA)
[11]
  binding result: no binding (tested: 100 ug/ml sHLA)
[12]
  binding result: no binding (tested: 100 ug/ml sHLA)
[13]
  binding result: no binding (tested: 100 ug/ml sHLA)
[14]
  binding result: no binding (tested: 100 ug/ml sHLA)
[15]
  binding result: no binding (tested: 100 ug/ml sHLA)
[16]
  binding result: no binding (tested: 100 ug/ml sHLA)
[17]
  binding result: no binding (tested: 100 ug/ml sHLA)
[18]
  binding result: no binding (tested: 100 ug/ml sHLA)
[19]
  binding result: no binding (tested: 100 ug/ml sHLA)
[20]
  binding result: no binding (tested: 100 ug/ml sHLA)
[21]
  binding result: no binding (tested: 100 ug/ml sHLA)
[22]
  binding result: no binding (tested: 100 ug/ml sHLA)
[23]
  binding result: no binding (tested: 100 ug/ml sHLA)
[24]
  binding result: no binding (tested: 100 ug/ml sHLA)
[25]
  binding result: no binding (tested: 100 ug/ml sHLA)
